Assay results from patent US20250281631A1 (SICHUAN KELUN BIOTECH BIOPHARMACEUTICAL, published 2025).

Tests used:
[1] = target: T1, human epidermal growth factor receptor 3 (HER3) (human, UniProt P21860 20-1342); experiment: flow cytometry on MDA-MB-453 cells
T1 construct: whole, on cells; also called ErbB3; Erbb3
Method: (§1) The affinity of anti-human HER3 ADC to MDA-MB-453, NCI-H358, KPL-4, and A431 cells was detected by flow cytometry (Beckman, model Cytoflex).
(§2) Adherent MDA-MB-453, NCI-H358, KPL-4, A431 cells were digested with Tryple (manufacturer: Gibco) solution, counted, and an appropriate amount of the cells were taken, washed twice with 1×PBS, resuspended in 1% BSA in PBS solution, and then transferred to a 96-well sharp-bottom plate, 50 μl per well; candidate antibodies and drug conjugates thereof were diluted with 1% BSA in PBS solution by 3-fold or 2.5-fold serial dilution starting from 5 μg/mL, and then 50 μl of the diluted antibody or antibody-drug conjugate was added to the sharp-bottom plate containing the cells, and incubation was carried out at 4° C. for 40 minutes; the cells were washed twice with PBS, then added with 50 μl of diluted secondary antibody to each well, mixed, and incubated at 4° C. for 30 minutes; the cells were washed with PBS twice, then resuspended in 400 μl of PBS and detected by flow cytometry. Data processing: the average fluorescence signal values were exported, and then input into GraphPad Prism 6 software to calculate EC50.

[2] = target: T1, human epidermal growth factor receptor …; experiment: flow cytometry on MDA-MB-453 cells (second experiment, dilution from 15 ug/mL)
Method: The affinity of anti-human HER3 ADC to MDA-MB-453 cells was detected by flow cytometry (Beckman, model Cytoflex).
Adherent MDA-MB-453 cells were digested with Tryple (manufacturer: Gibco) solution, counted, and an appropriate amount of the cells were taken, washed twice with 1×PBS, resuspended in 1% BSA solution, and then transferred to a 96-well sharp-bottom plate, 50 μl per well; candidate antibodies and drug conjugates thereof were diluted with 1% BSA by 3-fold serial dilution starting from 15 μg/mL, and then 50 μl of the diluted antibody or antibody-drug conjugate was added to the sharp-bottom plate containing the cells, and incubation was carried out at 4° C. for 40 minutes; the cells were washed twice with PBS, then added with 50 μl of diluted secondary antibody to each well, mixed, and incubated at 4° C. for 30 minutes; the cells were washed with PBS twice, then resuspended in 200 μl of PBS and detected by flow cytometry. Data processing: the average fluorescence signal values were exported, and then input into GraphPad Prism 6 software to calculate EC50.

[3] = target: T1, human epidermal growth factor receptor …; experiment: cell-based or functional assay
[4] = target: T1, human epidermal growth factor receptor …; experiment: flow cytometry on NCI-H358 cells
Method: as §1, §2

[5] = target: T1, human epidermal growth factor receptor …; experiment: flow cytometry on KPL-4 cells
Method: as §1, §2

[6] = target: T1, human epidermal growth factor receptor …; experiment: flow cytometry on A431 cells
Method: as §1, §2

Binder	EC50 [1]	EC50 [2]	IC50 (nM), in vitro cytotoxicity (CCK8, 6 days) on HEK293T-hHER3 cells [3]	EC50 [4]	EC50 [5]	EC50 [6]	IC50 (nM), in vitro cytotoxicity (CCK8, 6 days) on HCC1569 cells [3]	IC50 (nM), in vitro cytotoxicity (CCK8, 6 days) on MDA-MB-453 cells [3]
U1-59 (HER3 control antibody) (antibody, V domains shown) VH: QVQLQQWGAGLLKPSETLSLTCAVYGGSFSGYYWSWIRQPPGKGLEWIGEINHSGSTNYNPSLKSRVTISVETSKNQFSLKLSSVTAADTAVYYCARDKWTWYFDLWGRGTLVTVSS VL: not shown	0.426 µg/mL	0.684 µg/mL						
ADC 22B6-A-01 (antibody, human IgG1, kappa, V domains shown, drug-linker A-01 on a cysteine sulfhydryl group; LC-DAR1 ratio 0.990; drug-linker A-01 on cysteine sulfhydryl groups after TCEP reduction; mainly 3 per heavy chain (HC-DAR3 ratio 0.981)) VH: EVHLVESGGGVVQPGRSLRLSCATSGFTFRSYGMHWVRQAPGKGLEWVAVIWYDGSNKYYADSVKGRFTISRDISKNTLYLQMNSLTAEDTAVYYCARYYYDSNGYYDAFDIWGQGTMVTVSS VL: DIQLTQSPSFLSASVGDRVTITCRASQGISNYLAWYQQKPGKAPKLLIFAASTLQSGVPSRFSGSGSGAEFTLTISSLEPEDFATYYCQQLNSYPITFGQGTRLEIKR			0.0014 nM	0.0445 µg/mL	0.0387 µg/mL	0.0307 µg/mL		
ADC 22B6-B-04-02 (antibody, human IgG1, kappa, V domains shown, drug-linker B-04 on cysteine sulfhydryl groups after TCEP reduction (overall DAR 6.87; split between the chains not given), Antibody-drug conjugate of 22B6D2-hIgG1 with drug-linker B-04; also called 22B6-B-04-2) VH: EVHLVESGGGVVQPGRSLRLSCATSGFTFRSYGMHWVRQAPGKGLEWVAVIWYDGSNKYYADSVKGRFTISRDISKNTLYLQMNSLTAEDTAVYYCARYYYDSNGYYDAFDIWGQGTMVTVSS VL: DIQLTQSPSFLSASVGDRVTITCRASQGISNYLAWYQQKPGKAPKLLIFAASTLQSGVPSRFSGSGSGAEFTLTISSLEPEDFATYYCQQLNSYPITFGQGTRLEIKR		0.195 µg/mL						
ADC 22B6-B-01 (antibody, human IgG1, kappa, V domains shown, drug-linker B-01 on a cysteine sulfhydryl group; LC-DAR1 ratio 0.999; drug-linker B-01 on cysteine sulfhydryl groups after TCEP reduction; mainly 3 per heavy chain (HC-DAR3 ratio 0.933)) VH: EVHLVESGGGVVQPGRSLRLSCATSGFTFRSYGMHWVRQAPGKGLEWVAVIWYDGSNKYYADSVKGRFTISRDISKNTLYLQMNSLTAEDTAVYYCARYYYDSNGYYDAFDIWGQGTMVTVSS VL: DIQLTQSPSFLSASVGDRVTITCRASQGISNYLAWYQQKPGKAPKLLIFAASTLQSGVPSRFSGSGSGAEFTLTISSLEPEDFATYYCQQLNSYPITFGQGTRLEIKR				0.0298 µg/mL	0.0519 µg/mL	0.0328 µg/mL		
ADC 22B6-A-07-A-1 (antibody, human IgG1, kappa, V domains shown, drug-linker A-07-A on a cysteine sulfhydryl group; mainly 1 per light chain (LC-DAR1 ratio 0.998); drug-linker A-07-A on cysteine sulfhydryl groups after TCEP reduction; mainly 3 per heavy chain (HC-DAR3 ratio 0.966)) VH: EVHLVESGGGVVQPGRSLRLSCATSGFTFRSYGMHWVRQAPGKGLEWVAVIWYDGSNKYYADSVKGRFTISRDISKNTLYLQMNSLTAEDTAVYYCARYYYDSNGYYDAFDIWGQGTMVTVSS VL: DIQLTQSPSFLSASVGDRVTITCRASQGISNYLAWYQQKPGKAPKLLIFAASTLQSGVPSRFSGSGSGAEFTLTISSLEPEDFATYYCQQLNSYPITFGQGTRLEIKR	0.056 µg/mL	0.147 µg/mL	0.0038 nM	0.0329 µg/mL	0.0325 µg/mL	0.0284 µg/mL	15.6 nM	19 nM
22B6D2-hIgG1 (antibody, V domains shown) VH: EVHLVESGGGVVQPGRSLRLSCATSGFTFRSYGMHWVRQAPGKGLEWVAVIWYDGSNKYYADSVKGRFTISRDISKNTLYLQMNSLTAEDTAVYYCARYYYDSNGYYDAFDIWGQGTMVTVSS VL: DIQLTQSPSFLSASVGDRVTITCRASQGISNYLAWYQQKPGKAPKLLIFAASTLQSGVPSRFSGSGSGAEFTLTISSLEPEDFATYYCQQLNSYPITFGQGTRLEIKR	0.0392 µg/mL	0.0854 µg/mL						
ADC 47A3-A-07-A (antibody, human IgG1, kappa, V domains shown, drug-linker A-07-A on a cysteine sulfhydryl group; LC-DAR1 ratio 0.820; drug-linker A-07-A on cysteine sulfhydryl groups after TCEP reduction; HC-DAR3 ratio 0.760, HC-DAR0 ratio 0.222) VH: EVQLQESGPGLVKPSQTLSLTCAISGDSVSSSQSTWNWIRQSPSRGLEWLGRTFYRSRWYNDYALSMKSRITINPDTSKNQFSLQLNPVTPEDTAVYYCARDTYYYGSGGFDYWGQGSRVTVSS VL: DIQMTQSPSTLSASVGDRVTITCRASQSLSRWLAWYQQKPEKAPKLLIYKASSLESGVPSRFSGSGSGTEFTLTISTLQPDDFATYYCQQYKNYYSFGQGTKLEIKR				0.158 µg/mL	0.125 µg/mL	0.0656 µg/mL		
ADC 100H7-A-07-A (antibody, human IgG1, kappa, V domains shown, drug-linker A-07-A on a cysteine sulfhydryl group; LC-DAR1 ratio 1.000; drug-linker A-07-A on cysteine sulfhydryl groups after TCEP reduction; mainly 3 per heavy chain (HC-DAR3 ratio 0.989)) VH: EVQLVESGGGVVLPGRSLRLSCAASGFTFSRNAMHWVRQAPGKGLEWVAVIWHDGSNKYYGDSVKGRFTISRDNSKNTLYLQMDSLTAEDTAVYYCARDRGASDFRGQGTLVTVSS VL: DIQMTQSPSTLSASVGDRVTITCRASQSINNWLAWYQQKPEKAPKLLIYKASSLESGVPSRFSGSGSGTEFTLTISSLQPDDFATYYCQQYNSYSLTFGGGTKVEIKR				0.427 µg/mL	0.274 µg/mL	0.266 µg/mL		
